Results on 8 molecules are retold here after patent US20230176070A1.

First the molecules themselves.
T1: PDZ domain of mitochondrial outer membrane protein 25 (mammalian (so in the source)) (UniProt P57105)
T1 sequence (looked up): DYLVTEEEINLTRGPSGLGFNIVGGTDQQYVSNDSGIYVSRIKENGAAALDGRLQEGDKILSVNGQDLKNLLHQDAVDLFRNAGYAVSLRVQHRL

B1: P4 (VHH)
VHH: HVQLVESGGGLVQAGGSLRLSCAAAGRTSSDYAMGWFRQAPGKEREFVSAINWSGISTYYADSVKGRFTISRDNAKNTVHLQMNSLKPEDTAVYYCAAEKLESLRNWHDPLMYDYWGQGTQVTVSE
B2: P14 (VHH)
VHH: QVQLVESGGGLVQAGDSLRLSCTASGRTFSTYTMAWFRQAPGKEREFVAAISWSGTYYADSVKGRFTISRDNAKNTVYLQMNSLKPEDTAVYYCAAVIGSTVDTYSPSDPLEYDYWGQGTQVTVSS
B3: P15 (VHH)
VHH: QVQLVESGGGLVQAGGSLRLSCVASGRPFSSLDMGWFRQRPGKERDVVATINWTGDSTYYLDSVKGRFTISRDNAKNTVFLQMNSLKPEDTAVYYCAARGGGSSVDSEYDVGEFEYDYWGQGTQVTVSS
B4: P13 (VHH)
VHH: QVQLVESGGGLVQAGGSLRLSCAASGRTFSTYTMGWFRQAPGKEREFVAAVTWSETLYSDSVKGRFTISRDNAKNTVYLQMNSLKPEDTAVYYCAAVQGSPVDTIVVLTTSEEYDYWGQGTQVTVSS
B5: P9 (VHH)
VHH: DVQLVESGGGLVQAGGSLRLSCVASVASGRTFGWYDMGWFRQAPGKEREFVAAISWSGGSTYYADSVKGRSTISRDNAKNTVYLQMNSLKPEDTAVYYCAARGGGTSVDSDYDVGEFEYDYWGQGTQVTVSE
B6: P6 (VHH)
VHH: HVQLVESGGGLVQAGGSLRLSCAASGRTFSRYTMGWFHQAPGKEREFVAEISGTGGNTGYADSVKGRFTMSRDNAKNTVYLQMNSLKPEDTGVYYCAAVIGSPTDSSDYRSSLDYDYWGQGTQVTVSE
B7: P11 (VHH)
VHH: DVQLVESGGGLVQAGGSLRLSCVASGRTFSTYTMGWFRQAPGKEREFVAHIGWSGSSTYYADSVKGRFTISRDNAKNTMYLQMNSLKPEDTAVYYCAVAIGSPVDSYRHSDPLEYDYWGQGTQVTVSE
B8: P5 (VHH)
VHH: DVQLVESGGGLVQAGDSLRLSCAASGITFRWYTMAWFRQAPGKERDFVATINWSGSDTNYADSVKGRFTISRDNAKNTVTLQMNSLQPEDTAVYYCAGVPGTSLSGETDPRDYDYWGQGTQVTVSE

In one assay the target is GST fusion PDZ mutant protein (R46E:K48D) (mammalian (so in the source)) (UniProt P57105). Nature of the assay: indirect ELISA, PDZ R46E:K48D coated. (In general: ELISA stands for enzyme-linked immunosorbent assay.)
In turn, B1 had a Mutant ELISA affinity (LogIC50 (oD450nm)) of 4.58.

For the molecule B2, the Mutant ELISA affinity (LogIC50 (oD450nm)) was found to be 3.74.

B3 came in with a Mutant ELISA affinity (LogIC50 (oD450nm)) of 1.66.

The molecule B4 displayed a Mutant ELISA affinity (LogIC50 (oD450nm)) of 0.0071.

For B5, the Mutant ELISA affinity (LogIC50 (oD450nm)) was found to be 2.61.

B6 showed a Mutant ELISA affinity (LogIC50 (oD450nm)) of 4.73.

For the molecule B7, the Mutant ELISA affinity (LogIC50 (oD450nm)) is 0.

With B8, the Mutant ELISA affinity (LogIC50 (oD450nm)) was found to be 0.

The next assay has as its target T1, PDZ domain of mitochondrial outer membrane protein 25 (mammalian (so in the source)). Nature of the assay: indirect ELISA, wild type PDZ coated.
B1 had a WT ELISA affinity (LogIC50 (oD450nm)) of 4.42.

B2: the WT ELISA affinity (LogIC50 (oD450nm)) is 5.15.

On to B3, for which the WT ELISA affinity (LogIC50 (oD450nm)) was 4.97.

B4 returned a WT ELISA affinity (LogIC50 (oD450nm)) of 4.45.

Molecule B5 registered a WT ELISA affinity (LogIC50 (oD450nm)) of 4.88.

In turn, B6 registered a WT ELISA affinity (LogIC50 (oD450nm)) of 5.25.

Turning to B7, the WT ELISA affinity (LogIC50 (oD450nm)) worked out at 4.07.

B8 yielded a WT ELISA affinity (LogIC50 (oD450nm)) of 4.7.

A further assay has as its target GST fusion PDZ mutant protein (R46E:K48D) (mammalian (so in the source)) (UniProt P57105). Nature of the assay: ELISA, wild type PDZ against PDZ R46E:K48D.
The molecule B1 displayed an Affinity fold change of 1 fold.

B2 returned an Affinity fold change of 25.7 fold.

B3 showed an Affinity fold change of 2060 fold.

The molecule B4 displayed an Affinity fold change of 28000 fold.

On to B5, for which the Affinity fold change was 185 fold.

The molecule B6 returned an Affinity fold change of 3.32 fold.

On to B7, for which the Affinity fold change came out at 11700 fold.

Molecule B8 had an Affinity fold change of 50600 fold.
